From patent US20230192818A1 come the findings set out here.

The target of test [1] is FCGR1 (UniProt P12314).
For test [2], the target named is FcRn (UniProt P55899).
Test [3] has as its target FCGR 3a (V 176) (UniProt P08637).
The target in test [4] is FCGR 2a (H 167) (UniProt P12318).
In test [5] the target is FCGR 3a (F 176) (UniProt P08637).
Test [6] concerns the target FCGR 2b/c (UniProt P31994).

Values joined by “and” are separate entries in the source; they are usually repeats but may differ in a detail not shown here. Equal entries are not always repeated.

Chain of FCGR 3a (V 176) (P08637 17-208 F176V limits assumed): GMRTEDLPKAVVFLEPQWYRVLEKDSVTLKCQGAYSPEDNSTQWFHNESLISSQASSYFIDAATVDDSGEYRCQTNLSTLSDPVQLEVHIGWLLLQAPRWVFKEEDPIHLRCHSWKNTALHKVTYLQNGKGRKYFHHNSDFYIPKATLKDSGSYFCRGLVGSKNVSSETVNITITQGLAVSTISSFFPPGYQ
Chain of FCGR 2b/c (P31994 46-217 limits assumed): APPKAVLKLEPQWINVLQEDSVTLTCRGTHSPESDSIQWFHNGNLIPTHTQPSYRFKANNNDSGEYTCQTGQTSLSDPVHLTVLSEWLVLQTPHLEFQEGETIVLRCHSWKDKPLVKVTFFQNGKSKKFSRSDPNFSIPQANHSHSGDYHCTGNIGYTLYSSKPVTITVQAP
Chain of FCGR 3a (F 176) (P08637 17-208 limits assumed): as the sequence (P08637 17-208 F176V limits assumed) above, with V160F counted along it
Chain of FcRn (P55899 24-297 limits assumed, chain 1 of 2): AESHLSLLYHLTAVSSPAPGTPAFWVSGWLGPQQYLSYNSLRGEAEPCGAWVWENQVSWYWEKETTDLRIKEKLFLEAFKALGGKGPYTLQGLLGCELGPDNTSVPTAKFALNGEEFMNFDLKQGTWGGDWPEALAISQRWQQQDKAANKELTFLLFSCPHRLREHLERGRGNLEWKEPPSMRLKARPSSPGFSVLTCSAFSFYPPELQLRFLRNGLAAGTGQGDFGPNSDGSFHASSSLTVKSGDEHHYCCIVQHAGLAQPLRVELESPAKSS
Chain of FcRn (P61769 21-119 limits assumed, chain 2 of 2, further chain): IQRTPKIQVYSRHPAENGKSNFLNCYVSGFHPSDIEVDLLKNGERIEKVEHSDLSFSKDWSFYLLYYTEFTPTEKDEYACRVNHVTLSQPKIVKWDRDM
Chain of FCGR1 (P12314 16-288 limits assumed): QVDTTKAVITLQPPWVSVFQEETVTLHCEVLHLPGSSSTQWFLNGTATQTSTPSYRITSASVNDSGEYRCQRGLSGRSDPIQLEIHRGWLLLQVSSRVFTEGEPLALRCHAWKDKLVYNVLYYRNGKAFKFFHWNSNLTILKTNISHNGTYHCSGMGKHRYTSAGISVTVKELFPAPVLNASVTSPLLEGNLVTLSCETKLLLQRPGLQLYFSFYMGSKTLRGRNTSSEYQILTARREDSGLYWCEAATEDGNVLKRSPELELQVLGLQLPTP

With human IgG1 isotype control (antibody), the Kd in test [1] was 0.46 nM; in test [2], 81.1 nM and 86.5 nM; in test [3] it was 161 nM and 210 nM; in test [4], 462 nM and 537 nM; in test [5] it was 1110 nM and 796 nM; in test [6] it was 1360 nM and 1590 nM. The substance also registered a dissociation rate constant (koff) in test [1] of 0.000245 s⁻¹.
